Results from PMC9799976.
Blank lines part the entries; values can stand above or below the binder they belong to.

Assays:
[1] = target: full-length human dynein complex (heavy chain with SNAP-tag, IC, LIC, Tctex, LC8, Robl) (human) (UniProt Q14204); test: single-molecule TIRF microscopy; 10 nM JIP3 (Halo-JF646) on surface-attached MTs, without or with 1 nM dynein; dwell time of JIP3 on MT-bound dynein
[2] = target: full-length human dynein complex (heavy chain with SNAP-tag, IC, LIC, Tctex, LC8, Robl) (human) (UniProt Q14204)
[3] = target: tail-truncated single-headed human dynein (amino acids 1320-4646 of DYNC1H1), N-terminal GFP (human) (UniProt Q14204)
Chain of tail-truncated single-headed human dynein (amino acids 1320-4646 of DYNC1H1), N-terminal GFP (human) (Q14204 1320-4646): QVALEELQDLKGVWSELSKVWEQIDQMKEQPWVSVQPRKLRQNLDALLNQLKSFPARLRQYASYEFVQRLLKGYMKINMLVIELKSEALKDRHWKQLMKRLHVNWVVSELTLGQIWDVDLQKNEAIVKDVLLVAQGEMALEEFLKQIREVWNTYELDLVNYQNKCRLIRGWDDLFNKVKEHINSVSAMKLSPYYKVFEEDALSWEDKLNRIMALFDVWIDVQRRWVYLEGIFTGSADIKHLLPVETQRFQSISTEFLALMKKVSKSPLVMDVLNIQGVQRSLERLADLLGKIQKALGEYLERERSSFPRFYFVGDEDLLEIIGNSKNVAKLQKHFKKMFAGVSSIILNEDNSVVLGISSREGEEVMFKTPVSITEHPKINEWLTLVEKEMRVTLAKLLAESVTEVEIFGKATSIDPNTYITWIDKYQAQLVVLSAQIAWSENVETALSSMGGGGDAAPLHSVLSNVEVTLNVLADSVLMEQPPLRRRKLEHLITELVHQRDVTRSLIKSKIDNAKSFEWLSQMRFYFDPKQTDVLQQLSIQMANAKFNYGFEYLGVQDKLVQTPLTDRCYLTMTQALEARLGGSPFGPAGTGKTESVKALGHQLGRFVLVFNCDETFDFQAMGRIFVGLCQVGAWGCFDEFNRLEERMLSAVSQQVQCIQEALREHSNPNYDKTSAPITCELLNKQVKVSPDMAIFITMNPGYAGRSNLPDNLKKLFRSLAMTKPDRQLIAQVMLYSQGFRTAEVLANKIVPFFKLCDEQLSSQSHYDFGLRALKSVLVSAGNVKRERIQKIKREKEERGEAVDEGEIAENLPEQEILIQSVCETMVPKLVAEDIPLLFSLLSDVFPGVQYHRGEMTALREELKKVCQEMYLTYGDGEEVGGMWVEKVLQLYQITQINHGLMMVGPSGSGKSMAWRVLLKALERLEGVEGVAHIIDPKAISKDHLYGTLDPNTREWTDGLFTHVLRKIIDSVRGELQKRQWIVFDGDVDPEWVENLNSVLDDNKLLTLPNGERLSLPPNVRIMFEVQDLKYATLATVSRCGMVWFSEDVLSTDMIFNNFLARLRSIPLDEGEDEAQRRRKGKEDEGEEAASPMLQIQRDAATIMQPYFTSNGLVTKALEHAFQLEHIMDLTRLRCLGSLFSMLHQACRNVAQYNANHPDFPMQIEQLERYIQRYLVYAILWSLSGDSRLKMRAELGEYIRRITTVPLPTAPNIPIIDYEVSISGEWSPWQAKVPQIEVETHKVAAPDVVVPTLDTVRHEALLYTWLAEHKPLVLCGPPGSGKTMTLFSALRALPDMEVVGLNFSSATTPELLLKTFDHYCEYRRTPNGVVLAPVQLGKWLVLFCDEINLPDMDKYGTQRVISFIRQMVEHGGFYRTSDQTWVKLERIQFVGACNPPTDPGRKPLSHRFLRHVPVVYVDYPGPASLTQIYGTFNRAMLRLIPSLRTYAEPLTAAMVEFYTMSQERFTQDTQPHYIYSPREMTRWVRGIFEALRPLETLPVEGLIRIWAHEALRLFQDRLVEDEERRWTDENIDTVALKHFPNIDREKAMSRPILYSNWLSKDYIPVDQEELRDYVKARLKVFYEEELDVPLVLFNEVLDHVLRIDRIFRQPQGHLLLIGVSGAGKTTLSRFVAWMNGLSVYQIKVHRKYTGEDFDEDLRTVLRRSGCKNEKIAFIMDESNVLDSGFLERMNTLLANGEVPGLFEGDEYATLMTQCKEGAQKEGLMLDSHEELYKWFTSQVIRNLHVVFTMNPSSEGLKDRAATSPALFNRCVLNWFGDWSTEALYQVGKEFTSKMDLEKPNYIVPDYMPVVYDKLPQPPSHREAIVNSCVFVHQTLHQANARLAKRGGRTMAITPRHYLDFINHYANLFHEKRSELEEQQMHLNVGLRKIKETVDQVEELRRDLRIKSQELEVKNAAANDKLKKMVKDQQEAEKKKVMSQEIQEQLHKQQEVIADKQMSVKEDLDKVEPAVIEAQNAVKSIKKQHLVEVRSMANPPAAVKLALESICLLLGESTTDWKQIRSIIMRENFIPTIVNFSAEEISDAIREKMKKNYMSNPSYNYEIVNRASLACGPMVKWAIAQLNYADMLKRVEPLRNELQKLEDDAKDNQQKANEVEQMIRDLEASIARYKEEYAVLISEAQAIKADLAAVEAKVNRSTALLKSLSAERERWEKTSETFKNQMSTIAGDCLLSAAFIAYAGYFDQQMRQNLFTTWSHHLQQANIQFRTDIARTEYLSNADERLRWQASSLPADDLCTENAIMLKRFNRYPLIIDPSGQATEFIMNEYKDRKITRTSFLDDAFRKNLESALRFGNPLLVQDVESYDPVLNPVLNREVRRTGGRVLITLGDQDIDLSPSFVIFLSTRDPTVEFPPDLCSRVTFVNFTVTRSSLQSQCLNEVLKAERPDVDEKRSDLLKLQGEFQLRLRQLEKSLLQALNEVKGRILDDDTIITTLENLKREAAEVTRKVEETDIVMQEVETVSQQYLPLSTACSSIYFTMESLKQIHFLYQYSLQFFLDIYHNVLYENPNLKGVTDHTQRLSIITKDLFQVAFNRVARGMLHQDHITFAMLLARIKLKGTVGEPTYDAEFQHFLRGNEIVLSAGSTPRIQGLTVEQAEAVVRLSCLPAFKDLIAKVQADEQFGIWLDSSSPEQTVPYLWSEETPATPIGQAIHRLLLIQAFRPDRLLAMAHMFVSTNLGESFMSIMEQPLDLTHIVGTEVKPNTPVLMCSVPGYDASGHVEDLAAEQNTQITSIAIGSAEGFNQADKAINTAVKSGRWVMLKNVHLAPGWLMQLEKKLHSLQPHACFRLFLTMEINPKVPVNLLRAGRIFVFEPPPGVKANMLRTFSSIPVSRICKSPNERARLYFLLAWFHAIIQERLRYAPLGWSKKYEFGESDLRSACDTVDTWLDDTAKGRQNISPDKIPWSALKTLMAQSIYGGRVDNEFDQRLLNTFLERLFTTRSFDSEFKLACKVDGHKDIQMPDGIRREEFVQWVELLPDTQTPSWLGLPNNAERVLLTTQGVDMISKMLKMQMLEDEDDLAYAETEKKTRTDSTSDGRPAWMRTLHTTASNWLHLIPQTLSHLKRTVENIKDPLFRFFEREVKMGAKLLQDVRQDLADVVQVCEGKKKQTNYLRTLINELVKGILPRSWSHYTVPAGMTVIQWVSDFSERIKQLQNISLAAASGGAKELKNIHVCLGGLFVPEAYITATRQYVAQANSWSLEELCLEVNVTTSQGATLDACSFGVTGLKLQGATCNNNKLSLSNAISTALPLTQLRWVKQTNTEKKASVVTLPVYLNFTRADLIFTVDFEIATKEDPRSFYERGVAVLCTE

dwell time of JIP3 on dynein [1]: 0.42 s
B1: mouse JIP3 (amino acids 1-240; cloned as 3-240) with C-terminal HaloTag (domain or fragment)
chain: EIQMDEGGGVVVYQDDYCSGSVMSERVSGLAGSIYREFERLIHCYDEEVVKELMPLVVNVLENLDSVLSENQEHEVELELLREDNEQLLTQYEREKALRKQAEEKFIEFEDALEQEKKELQIQVEHYEFQTRQLELKAKNYADQISRLEERESEMKKEYNALHQRHTEMIQTYVEHIERSKMQQVGGSGQTESSLPGRSRKERPTSLNVFPLADGMVRAQMGGKLVPAGDHWHLSDLG
modifications: Halo-JF646 on the HaloTag

velocity of DDJ motor complexes on MTs with 10 nM N-DCX (DDJ only: 0.76 [0.65, 0.89] µm/s) [2]: 0.54 µm/s | velocity of MT gliding powered by surface-bound single-headed dynein with 10 nM N-DCX, not significantly changed (without N-DCX: 0.59 [0.56, 0.63] µm/s) [3]: 0.58 µm/s
B2: N-DCX with a C-terminal ybbR-tag (N-DCX-ybbR) (domain or fragment)
chain: MELDFGHFDERDKTSRNMRGSRMNGLPSPTHSAHCSFYRTRTLQALSNEKKAKKVRFYRNGDRYFKGIVYAVSSDRFRSFDALLADLTRSLSDNINLPQGVRYIYTIDGSRKIGSMDELEEGESYVCSSDNFFKKVEYTKNVNPNWSVNVKTSANMKAPQSLASSNSAQARENKDFVRPKLVTIIRSGVKPRKAVRVLLNKKTAHSFEQVLTDITEAIKLETGVVKKLYTLDGKQVTCLHDFFGDDDVFIACGPEKFRYAQDDFSLDENE
modifications: CoA-CF488 or CoA-JF549 on the ybbR-tag

velocity of DDJ motor complexes on MTs with 10 nM DCX (DDJ only: 0.76 [0.65, 0.89] µm/s) [2]: 0.62 µm/s
B3: full-length DCX with a C-terminal ybbR-tag (DCX-ybbR) (natural protein)
chain: MELDFGHFDERDKTSRNMRGSRMNGLPSPTHSAHCSFYRTRTLQALSNEKKAKKVRFYRNGDRYFKGIVYAVSSDRFRSFDALLADLTRSLSDNINLPQGVRYIYTIDGSRKIGSMDELEEGESYVCSSDNFFKKVEYTKNVNPNWSVNVKTSANMKAPQSLASSNSAQARENKDFVRPKLVTIIRSGVKPRKAVRVLLNKKTAHSFEQVLTDITEAIKLETGVVKKLYTLDGKQVTCLHDFFGDDDVFIACGPEKFRYAQDDFSLDENECRVMKGNPSATAGPKASPTPQKTSAKSPGPMRRSKSPADSGNDQDANGTSSSQLSTPKSKQSPISTPTSPGSLRKHKDLYLPLSLDDSDSLGDSM
modifications: CoA-CF488 or CoA-JF549 on the ybbR-tag
